Data as given in paper PMC7395093.
Residue numbers refer to the chain shown, from its start.

B1: N-terminally V5 epitope-tagged WT (full-length) [mouse] / C-terminal GFP-tagged Atg16L1 WT (full-length) [mouse] (parent)
chain 1: MTSEMESSLEVSFSSSCAVSGASGCLPPARSRIFKIIVIGDSNVGKTCLTYRFCAGRFPDRTEATIGVDFRERAVDIDGERIKIQLWDTAGQERFRKSMVQHYYRNVHAVVFVYDMTNMASFHSLPAWIEECKQHLLANDIPRILVGNKCDLRSAIQVPTDLAQKFADTHSMPLFETSAKNPNDNDHVEAIFMTLAHKLKSHKPLMLSQLPDNRISLKPETKPAVTCWC
chain 2: MSSGLRAADFPRWKRHIAEELRRRDRLQRQAFEEIILQYTKLLEKSDLHSVLTQKLQAEKHDMPNRHEISPGHDGAWNDSQLQEMAQLRIKHQEELTELHKKRGELAQLVIDLNNQMQQKDKEIQMNEAKISEYLQTISDLETNCLDLRTKLQDLEVANQTLKDEYDALQITFTALEEKLRKTTEENQELVTRWMAEKAQEANRLNAENEKDSRRRQARLQKELAEAAKEPLPVEQDDDIEVIVDETSDHTEETSPVRAVSRAATKRLSQPAGGLLDSITNIFGRRSVSSIPVPQDIMDTHPASGKDVRVPTTASYVFDAHDGEVNAVQFSPGSRLLATGGMDRRVKLWEAFGDKCEFKGSLSGSNAGITSIEFDSAGAYLLAASNDFASRIWTVDDYRLRHTLTGHSGKVLSAKFLLDNARIVSGSHDRTLKLWDLRSKVCIKTVFAGSSCNDIVCTEQCVMSGHFDKKIRFWDIRSESVVREMELLGKITALDLNPERTELLSCSRDDLLKVIDLRTNAVKQTFSAPGFKCGSDWTRVVFSPDGSYVAAGSAEGSLYVWSVLTGKVEKVLSKQHSSSINAVAWAPSGLHVVSVDKGSRAVLWAQP
B2: C-terminal GFP-tagged Atg16L1 WT (full-length) [mouse] / N-terminally V5 epitope-tagged (full-length) [mouse] (parent)
chain 1: B1 chain 1 with Q92L
chain 2: B1 chain 2

Variants of: B1
Test: GFP co-immunoprecipitation, western blot band quantification
Details: with C-terminal GFP-tagged Atg16L1 WT (full-length) [mouse]; Overexpression was done in HEK293 cells; read off a plot

Row | response [a.u.] | Variant
1 | 0.6 | chain 1 T47N

Variants of: B2
Test: as above
Details: with N-terminally V5 epitope-tagged Rab33B Q92L (full-length) [mouse]; Overexpression was done in HEK293 cells; read off a plot

Row | response [a.u.] | Variant
2 | 0.12 | chain 2 N206K
3 | 0.13 | chain 2 K198A
4 | 0.06 | chain 2 A202W

Same assay, conditions: with C-terminal GFP-tagged Atg16L1 WT (full-length) [mouse]; Overexpression was done in HEK293 cells; read off a plot

Row | response [a.u.] | Variant
5 | 0.04 | chain 1 F70A
6 | 0.32 | chain 1 F70E
